Source: patent publication US9388233

Target: I-SceI mutants selected from G13/P14/N15/K20 saturation library (UniProt P03882)
Experiment: cell_activity
Settings: first selection round, library pool; individual mutants not given

Chain of UniProt P03882 (P03882 whole entry, change not shown): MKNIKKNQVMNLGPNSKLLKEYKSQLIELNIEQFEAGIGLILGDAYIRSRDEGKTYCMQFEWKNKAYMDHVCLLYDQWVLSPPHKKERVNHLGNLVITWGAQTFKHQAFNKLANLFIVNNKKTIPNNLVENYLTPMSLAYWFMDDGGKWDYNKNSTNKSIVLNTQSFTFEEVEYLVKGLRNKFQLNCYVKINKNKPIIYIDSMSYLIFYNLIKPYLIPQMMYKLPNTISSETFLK

TAGGGATAACAGGGGTCT (double strand) [T3i1]
activity (fold cell survival vs wild type): 10
